This is an account of results in the DeepSol protein solubility set.

The series in a line: soluble on expression in E. coli; label from the status in PepcDB or PDB records.
“MSLIKLVAIDLDGTLLNSQKEISLRNKQALMAAKQAGVKVVICTGRPLAAIGPYLEELGLQDEGDYSITFNGGLVQKNDTGAIIEKTLMPLEAIHELYQLATTLNMPFDVLSDEVVMQLPSAPNYPSIYSSLNKLLTFESYKLEELTPNRIYNKVVVAIDEAYLNERIKEIPASFYERFEIIKTRNNLLEFMPKGITKAYGISLLAKDLGIRAEEIMTLGDEENDLPMIEYAGLGVAMANAIPLVKEAADVVTDTNDQDGVAKAVEKYILTPLEGGEGHHHHHH”: the “soluble on expression in E. coli” value is recorded as “soluble”.

In the case of “NVAYPLGEGLLSFAESLESQKIHFTTEVITSRIEPANRYVAEKLRITPGQDILYLERLRSIGDEKAMLIENRINIELCPGIVEIDFNQHNLFPTIESLSKRKIRYSESRYAARLIGNERGHFLDISEDAPVLHLEQLVFFSRELPVEFGNVWLKGNKYYLGTVLQRRELS”, the “soluble on expression in E. coli” value is “soluble”.

For “MSLCELLGMSANVPTDICFSFTGLMQRGGKTGPHRDGWGIAFYEGKGFRTFKDPNPSSQSKIAELVQQYPIKSRAVISHIRQANRGGVNLENTHPFTRELWGQYWTFAHNGQLTGYQNLVTGRHRPVGETDSELAFCWLLNQMEQCYPEGPQDWPEMLRYVAQCCDELRALGVFNMLLSNGEYVMAYCTNHLYWITRRAPFGCAALLDEDVEINFQEETTPNDVVSVIATQPLTGNETWQRMKPGQFAFFHFGERIEDNAHVLMDVGFAPNRPGCQAPSQPLDEGGSHHHHHH”, the “soluble on expression in E. coli” value is given as “soluble”.

Regarding “MARRIGHPYQNRTPPKRKKPRTSFTRIQVAELEKRFHKQKYLASAERAALARGLKMTDAQVKTWFQNRRTKWRRQTAEEREAERQAANRLMLS”, the “soluble on expression in E. coli” value is listed as “soluble”.

Take “MAHHHHHHMYVLEGFYESVYNARWHHVVEVPDGEGTGMEVREGKSPQSWTYRAAGEFLEKNDGEEQSGALRPRLMVLTSGKGWPYSWEEDESTPDCYVNCEVDRVWQIVRNDLTELLGPDPGADFRPERRVLIGTPGIGKSLAAGSYLLYQLLQYDAEQLPMVAYVFAGRK”: the “soluble on expression in E. coli” value is on record as “not soluble”.

In the case of “MSLKIVDATVLVTCPGRNFVTLRITTDEGVTGLGDATLNGREQAVVAYLREHVVPLLLGTDPHRIEDTWQSLYRGAYWRRGPVTMAAIAAVDVALWDIKAKVANLPLYQLLGGASRERVRTYGHANGRDIPELLDSVRARQAEGYQAIRVQTGVPGLRKVYGVHTGEAIAHNPTRLDQRAVPVVEDWDTPAYLRHLPTVLEAVRNEFGPELPLLHDAHHRLTPLQAAKLGKDVERYDLFWLEDCTPAENQEAFRLVRHHTTTPLAVGEVFNTVFDYQTLIAEQLIDYARSAVTHFGGVSALRKLFDFAAQHQVKSAIHGPEDISPVGMAAAIHLDLAVHNFGIQEYSGHTDATNEVFRHAYTFTDGHLHPGEAPGIGVDYDEELAAAHPYDPAYLPVNRLADGTVHDWEGHHHHHH”, the “soluble on expression in E. coli” value is “not soluble”.

On to “MFDKKLSSNDWHIQKVEMNHQVYDIETMLADSAFREHEEEQDSSLNTALPEDKTAIEAKEQEQKEKRKRWYELFKKKPKPKSSMGEFVFDQKENRIYGKGYCNRYFASYVWQGDRHIGIEDSGISRKVCKDEHLMAFELEFMENFKGNFTVTKGKDTLILDNQKMKIYLKTP”, for which the “soluble on expression in E. coli” value is “not soluble”.

Take “MLNNAMSVVILAAGKGTRMYSDLPKVLHTLAGKAMVQHVIDAANELGAAHVHLVYGHGGDLLKQALKDDNLNWVLQAEQLGTGHAMQQAAPFFADDEDILMLYGDVPLISVETLQRLRDAKPQGGIGLLTVKLDDPTGYGRITRENGKVTGIVEHKDATDEQRQIQEINTGILIANGADMKRWLAKLTNNNAQGEYYITDIIALAYQEGREIVAVHPQRLSEVEGVNNRLQLSRLERVYQSEQAEKLLLAGVMLRDPARFDLRGTLTHGRDVEIDTNVIIEGNVTLGHRVKIGTGCVIKNSVIGDDCEISPYTVVEDANLAAACTIGPFARLRPGAELLEGAHVGNFVEMKKARLGKGSKAGHLTYLGDAEIGDNVNIGAGTITCNYDGANKFKTIIGDDVFVGSDTQLVAPVTVGKGATIAAGTTVTRNVGENALAISRVPQTQKEGWRRPVKKK”: the “soluble on expression in E. coli” value is recorded as “soluble”.

With “GGPTIMVALANPRTESALITLASALAQHEDGRVLATHIATVPDQTALETAAANRDRIDATSESLLDTAKADAEAFDVPIETKTILSHRGIEEVFDAARTNHADTVVMGYGGTQFAGGRAEGTLDELAHDLPCDFLVLDGQDL”, the “soluble on expression in E. coli” value was “not soluble”.

Turning to “MRTNSEIISLIQSKVEERKMSMSELARNVGIAKSTMSRYFNKTREFPLNRADDFAKALNISTEFLLGIDLNSEVDGSELLGIYRELEEQRRVIVLDTAKEQLEEQTKIINFSDKKTDIEDIFEVKGTTFAAAASGFGRGFEADDYDTYTVYTDEEPPHYDYAIGIRGDSMLPKYEQGDMLYIVDKGMSTYSGQLCIVVHNGNTYFKKVYTEHDGLRLVSLNKKYSDIFIGYPPAEDTYIKIYDVVGSFTPIEF”, the “soluble on expression in E. coli” value is “not soluble”.

“MGSDKIHHHHHHMRKWLLGVTAALALTALAACGTESSSTSGEEDQDVTIGYFPNLDHAAAIVGKEKGFFAEELGEEKVEFTHFPNGNDFIEALSTGSIDIGYVGPGPAINYYLTGGDVVVLGSAANGATLIVARDGSGIDTLDDFDGKSFCTPGNGCTHNVQLEIMLKELGLESNRVGGTVEHQSRIAPSNMVAMFEQGQIDAAAAPEPWGTYLVEELGAHVVAEWNDVFLGEELASVVVVTTREFLENHPEQVEAFLRAHVKSVEFAQEDVDATLETVNDALFDLTQNRLPEDVLYKAWERMAVTTDTYPDALQAWADASYELKFMDEDPNLDGFVDTSLLDSILSE”: the “soluble on expression in E. coli” value was “not soluble”.

With “SKQPDKQRKSQRRAPLHERHKQVRATLSADLREEYGQRNVRVNAGDTVEVLRGDFAGEEGEVINVDLDKAVIHVEDVTLEKTDGEEVPRPLDTSNVRVTDLDLEDEKREARLESEDDSA”, the “soluble on expression in E. coli” value is given as “soluble”.

For “MSAATATRSQLALQSYLDALLQEATFEDLEPLVETPPAPAPAPLKPVALAVAEVATPAPALETLPVDHGFDEFEAAVLEEQVRDARLVPPAPAALLDEPTTLRELPVEPRPHEVIELRVPSAPASVGEPPLLDLPLLDDGRPAWAAEPFECLLFD”, the “soluble on expression in E. coli” value is listed as “soluble”.

“MGTFNNSIQEKIEKLQKTVDTLLHMGENMDCICVDDLSLLNKEIHEQINDLYPYHGKTAEQEAALCLSLLMGYSVSMYANSEDEAKKKTVLRRSQMILKNQLPSPLKIQLHTIYDKLLS”: the “soluble on expression in E. coli” value is on record as “not soluble”.

In the case of “MGSDKIHHHHHHMETLLKISGVDKSFPGVKALNNACLSVYAGRVMALMGENGAGKSTLMKVLTGIYSKDAGTIEYLNRSVNFNGPKASQEAGISIIHQELNLVGNLTIAENIFLGREFKTSWGAINWQKMHQEADKLLARLGVTHSSKQLCAELSIGEQQMVEIAKALSFESKVIIMDEPTDALTDTETEALFNVIRELKAENRGIVYISHRLKEIFQICDDVTVLRDGQFIGERVMAEITEDDLIEMMVGRRLDEQYPHLSQEKGECVLDVKHVSGSGIDDVSFKLHAGEIVGVSGLMGAGRTELGKLLYGALPKTAGKVRLKNQEIENRSPQDGLDNGIVYISEDRKGDGLVLGMSVKENMSLTSLDHFSQKGGIRHQAEKMAVDDFILMFNIKTPNRDQQVGLLSGGNQQKVAIARGLMTRPNVLILDEPTRGVDVGAKKEIYQLINEFKKEGLSILMISSDMPEVLGMSDRVLVMREGKISAEFSREEATQEKLLAAAIGK”, the “soluble on expression in E. coli” value is recorded as “not soluble”.

Regarding “MGSDKIHHHHHHMTLAEKILSQKAGRKVEPGEFLLLEPDIALANDITAPLAIKKFKEYGGKKVKYPDRVVLVPDHFTPNKDIKSAMQVKMMREFAREQGIEKFFEIGRMGIEHVLLPEEGIVKSGDLVVGADSHTCTYGALGAFATGVGSTDIAGFYLIGKVWFRVPESIKVTLRGKFKDLVTAKDLVLKLISILGVDGANYKAIEFSGPGVKEISMDGRFTISNMAIEAGGKTGLFPVDEITIAYERERGIEVEEMYPDEDAKYVREVEMDLSELEPQVAYPFLPSNAKDVSEAEKERIKIDQAVIGSCTNGRIEDLRLAAQILKGRTVSPDVRCIIIPGSQKVYKQALKEGLIDIFIDAGCAVSTPTCGPCLGGHMGVLAEGEVAISTTNRNFVGRMGHPNSKVFLASPAVAAASAIKGYIADPRKL”, the “soluble on expression in E. coli” value was “not soluble”.

“MAREKVSLTEFNLFSEGILEQGSSVRALEWAPIVPFADRAGFEQESRKALKKDFAIIELLANGNTIPAQSRTQYAPLYYIYPQYNNQEALGLDVYSNPTHILSMQVVVNSKAVIASAPITLVQDELAKPGMLFSKAVFLPPEVNELASNEAQQKLSIIKEGKLLGFVVAVAQFDSFFEQLAQQKEQEVSFFIQDVSGSQPLSLFGQAFPTVNRHVDTITIEVFSRLWQIDIALEHHHHHH”: the “soluble on expression in E. coli” value was “not soluble”.

For the sequence “MAEKFKIIMTEALSLYIWGCNILNTEKLETLLGFYKQYKALSEYIDKKYKLSLNDLAVLDLTMKHCKDEKVLMQSFLKTAMDELDLSRTKLLVSIRRLIEKERLSKVRSSKDERKIYIYLNNDDISKFNALFEDVEQFLNI”, the “soluble on expression in E. coli” value is “not soluble”.

Turning to “MAIKNAFYAQSGGVTAVINASACGVIQTARKHPDQIGKVYAGRNGIIGALKEELIDTSLESDDAIQALIHTPGGAFGSCRYKLKNISENQREYERLIEVFRAHDIGYFFYNGGGDSQDTAYKVSQLADRMGYPITCIGVPKTVDNDLPFTDCCPGFGSVAKYIATSTLEASLDIKSMCETSTKVFILEVMGRHAGWIAAAGGLAGQSEGEPPHVILFPEIPFNREKFLERVDQCVRDYGYCVVVASEGAQYEDGRFVADAGAKDAFGHTQLGGVAPALANMVKQALGHKYHWAVADYLQRAARHIASATDVEQAYAVGKAAVEMALAGKQALMPTIVRDQAKPYRWSIGEANLSEVANQEKKMPIHYITDNGFGITQDCRDYLQPLIAGESFPPFDDGLPRVAKLKNQLVEKKLRTEFEL”, the “soluble on expression in E. coli” value is on record as “soluble”.

Turning to “MSLDKWEMERTDITMKHKLGGGQFGEVYEGVWKKYSLTVAVKTLKEDTMEVEEFLKEAAVMKEIKHPNLVQLLGVCTREPPFYIITEFMTYGNLLDYLRECNRQEVSAVVLLYMATQISSAMEYLEKKNFIHRDLAARNCLVGENHLVKVADFGLSRLMTGDTYTAHAGAKFPIKWTAPESLAYNKFSIKSDVWAFGVLLWEIATYGMSPYPGIDPSQVYELLEKDYRMERPEGCPEKVYELMRACWQWNPSDRPSFAEIHQAFETMFQESSISDEVEKELGKRGEGHHHHHH”, the “soluble on expression in E. coli” value is recorded as “soluble”.

Take “MFCEKAMELIRELHRAPEGQLPAFNEDGLRQVLEEMKALYEQNQSDVNEAKSGGRSDLIPTIKFRHCSLLRNRRCTVAYLYDRLLRIRALRWEYGSILPNALRFHMAAEEMEWFNNYKRSLATYMRSLGGDEGLDITQDMKPPKSLYIEVRCLKDYGEFEVDDGTSVLLKKNSQHFLPRWKCEQLIRQGVLEHILS”: the “soluble on expression in E. coli” value was “soluble”.

As for “MPNTLKRLIPDPEVIKLQQLLSSNGYFEEIKPSHGLFDGITFDNAVLFQLQHIYKDGDPLKPDGVIGAKTWWALKNPSGEKQRNHLSASIPAGLTTKRHQLIELIIEEHSKPVFEVPDGSNRSPDIDGYWGNTGVIGLAWCCAFVSWVLKEVTDSYPIASTHHLGVQRMWRTAKRLNMTTEIPKPGDIFVQLFAGGKGHTGFVVAVTEDGETIYTCEGNCGNRLKIGKRSNNSELHFIDCLQDNQTLDFERMAFDVNSTIDNTTRLEHHHHHH”, the “soluble on expression in E. coli” value was “not soluble”.
